In publication PMC3645478:

Target: I-E^k (mouse MHC class II molecule, α- and β-subunits, six-histidine-tagged) (mouse)
Assay: peptide exchange induced by ultraviolet irradiation

Q: For “MCC peptide labeled with indocarbocyanine (Cy3)”, which percent of Lys99ANP–I-E^k converted into Cy3-labeled MCC–I-E^k is on record?
A: Its percent of Lys99ANP–I-E^k converted into Cy3-labeled MCC–I-E^k is 30%.
